Patent JP2018127443A

Molecular target: T1, 変性rFXIII-A (human) (UniProt P00488)
T1 sequence: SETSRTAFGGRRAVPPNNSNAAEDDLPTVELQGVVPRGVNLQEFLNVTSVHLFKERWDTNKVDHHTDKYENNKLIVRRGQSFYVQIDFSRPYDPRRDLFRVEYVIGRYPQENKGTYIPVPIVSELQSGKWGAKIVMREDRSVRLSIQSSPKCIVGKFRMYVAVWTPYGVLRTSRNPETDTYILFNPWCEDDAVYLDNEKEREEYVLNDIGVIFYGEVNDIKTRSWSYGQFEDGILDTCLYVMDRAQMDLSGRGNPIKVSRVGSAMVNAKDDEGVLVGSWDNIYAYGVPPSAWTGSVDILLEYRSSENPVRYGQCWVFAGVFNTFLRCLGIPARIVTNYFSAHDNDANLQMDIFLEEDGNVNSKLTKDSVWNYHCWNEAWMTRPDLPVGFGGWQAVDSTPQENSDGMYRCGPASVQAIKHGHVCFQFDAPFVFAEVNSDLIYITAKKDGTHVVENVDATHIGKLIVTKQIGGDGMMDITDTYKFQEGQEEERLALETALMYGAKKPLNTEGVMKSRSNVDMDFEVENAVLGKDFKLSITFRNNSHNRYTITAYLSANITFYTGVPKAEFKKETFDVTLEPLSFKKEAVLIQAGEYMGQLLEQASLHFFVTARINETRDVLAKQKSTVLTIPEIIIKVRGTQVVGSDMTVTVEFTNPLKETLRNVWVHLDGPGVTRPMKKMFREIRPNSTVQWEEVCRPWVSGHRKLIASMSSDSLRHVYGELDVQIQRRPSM
Assay: solid-phase ELISA: denatured vs native rFXIII-A coated

B1: ヒト抗FXIII-Aモノクローナル抗体 A75K (antibody, V domains shown)
VH: QVQLVESGGGVVQPGRSLSLSCAASGFNFISYGMHWVRQSPGKGLEWVAVISYDGSKKYYADFVKGRFTISRDNSKNTLFLQMNSLRGDDTAVFYCAKDRGFYGSGSSDYYYVMDVWGQGTTVTVSS
VL: DIQMTQSPSSLSASVGDRVTITCRASQGITNYLAWFQHKPGKAPKSLIYAASTLHRGVSSKFSGSGSGTDFTLTISNLQPEDFATYYCQQYKTYPITFGQGTRLDIK
  fold change of binding, denatured against native rFXIII-A: 2 fold
